# According to US12109252B2, “Systems, methods and products for minimizing tissue reactions and tissue injury at an infusion site” (Cell and Molecular Tissue Engineering, LLC, priority 2016, dated 2024):
# Entries after “also recorded” stand apart in the source; their conditions may differ.
# How the values were obtained:
# [1] = test system: leukocyte proteases including neutrophil elastase, trypsin, and insulin-degrading enzyme; test: Insulin degradation by leukocyte proteases (SDS-PAGE) +/- inhibitors; assay type: biochemical; conditions: in vitro
# Protocol: (§1) To characterize the ability of purified proteases or leukocyte extracts to degrade FITC-insulin in vitro we analyzed the impact of cell culture supernatants and cell lysates on insulin degradation using 10-20% SDS-PAGE gels. This was performed +/−anti-protease cocktails to characterize proteases responsible for insulin degradation. The functional activity of individual leukocyte proteases was analyzed using protease PAGE gels +/−protease inhibitors. This study clarifies the role of leukocytes in insulin therapy. (FIG. 13a, 13b, 13c and FIG. 14).
# Trypsin = test: Insulin degradation by trypsin +/- anti-proteases (PAGE); assay type: biochemical
# Protocol: as §1, with “This study clarifies the role of leukocytes in insulin therapy.” left out
# (§2) In FIG. 53, I=insulin, T=Trypsin, E=Elastase, IDE-Insulin Degrading Enzyme, PMN=Triton X100 extract of human PMN, mwn=molecular weight marker.
# (§3) In this example, we tested the ability of various anti-proteases to inhibit insulin degradation by leukocyte extracts and proteases.
# [2] = test system: Triton X100 extract of human PMN; test: Insulin degradation by PMN extracts +/- inhibitors (PAGE); assay type: biochemical
# From the text: as §2, §3
# Elastase = target: T1, Elastase (Homo sapiens, UniProt P08246); test: Insulin degradation by elastase +/- anti-proteases (PAGE); assay type: biochemical
# T1 sequence (P08246 30-267): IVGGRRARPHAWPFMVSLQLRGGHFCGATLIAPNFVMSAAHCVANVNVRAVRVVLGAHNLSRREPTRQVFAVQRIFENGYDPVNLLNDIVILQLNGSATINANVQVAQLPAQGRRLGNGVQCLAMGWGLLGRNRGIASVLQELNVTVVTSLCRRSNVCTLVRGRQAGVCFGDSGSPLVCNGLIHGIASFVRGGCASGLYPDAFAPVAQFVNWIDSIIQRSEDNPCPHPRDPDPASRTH
# Protocol: as §1, with “This study clarifies the role of leukocytes in insulin therapy.” left out
# as §2, §3
# [3] = test system: human peripheral blood mononuclear cells (PMBC); test: Alamar Blue cell viability of human PBMC; assay type: cell-based
# Protocol: For these in vitro studies, generally either human or mouse leukocyte cells or cell lines were cultured in vitro in the presence or absence of insulin preservatives or fibrils at various concentrations. at selected times cell viability and or cell activation has (cytokine expression) was determined. The results of these studies are presented below the general work flow for these studies are located in FIG. 61. […] Insulin diluent contains the formulation components of commercial insulin solutions but without the insulin protein itself. For these studies we utilized the work flow described in FIG. 61. […] At physiologic concentrations, both insulin formulation and insulin fibrils are toxic for human cells in vitro. […] The Protocol was: Hu-PBMC+insulin (72 hr)=>Assay Interleukin 8 (IL-8). […] The Protocol was Hu-PBMC+insulin (7 days)=>Assay Interferon gamma. […] The in vivo activation of these cells would cause inflammation and tissue destruction resulting in loss of effective CSII function.
# [4] = test system: human peripheral blood mononuclear cells (PBMC); test: In vitro morphology of human PBMC after exposure; assay type: cell-based
# Protocol: FIG. 6. Toxicity of insulin and fibrils in vitro: Preliminary in vitro morphology of human peripheral blood mononuclear cells (PBMC) after exposure to control media, high (1.0 mg/mL), and low (0.1 mg/mL) concentrations of insulin or insulin fibrils (i.e. insulin degradation byproducts) FIG. 6). Healthy control cells [Left column] show a rounded morphology.
# human PBMCs = test: Pro-inflammatory cytokine expression by human PBMC in vitro; assay type: cell-based
# Protocol: For these in vitro studies, generally either human or mouse leukocyte cells or cell lines were cultured in vitro in the presence or absence of insulin preservatives or fibrils at various concentrations. at selected times cell viability and or cell activation has (cytokine expression) was determined. The results of these studies are presented below the general work flow for these studies are located in FIG. 61.
# FIG. 7. Our in vitro studies Insulin and excipients induced expression of pro-inflammatory cytokines in PBMC in vitro. […] Similar data has been obtained with human cell lines (THP-1) and mouse macrophages (MQ). This supports our belief that I/E can induce inflammation in vivo, and that chronic infusion of IFP can cause chronic inflammation and fibrosis.
# For these studies we utilized the work flow described in FIG. 61. […] At physiologic concentrations, both insulin formulation and insulin fibrils are toxic for human cells in vitro. […] The Protocol was: Hu-PBMC+insulin (72 hr)=>Assay Interleukin 8 (IL-8). […] The Protocol was Hu-PBMC+insulin (7 days)=>Assay Interferon gamma. […] The in vivo activation of these cells would cause inflammation and tissue destruction resulting in loss of effective CSII function.
# human neutrophils = test: Survival of human PMNs in serial dilutions; assay type: cell-based; conditions: 3 days, 1:48 dilution
# From the text: As the concentration increased, the number of cells surviving decreased for both insulin and insulin diluent.
# [5] = target: Insulin degrading enzyme (IDE) (Homo sapiens, UniProt P14735); test: Insulin degradation by insulin degrading enzyme +/- anti-proteases (PAGE); assay type: biochemical
# Protocol: as §1, with “This study clarifies the role of leukocytes in insulin therapy.” left out
# as §2, §3
# mouse mast cells = test: Mast cell morphology/toxicity in vitro; assay type: cell-based; conditions: physiologic concentrations
# From the text: FIGS. 46-47 show the impact of insulin on mast cell morphology. At physiologic concentrations, both insulin formulations fibrils (not shown) are toxic to mouse mast cells in vitro.
# human mast cells = test: Mast cell viability (alamar Assay); assay type: cell-based
# From the text: (§4) FIGS. 48-49 show the impact of insulin on mast cell viability and degranulation. Mast cells (MC) are key skin “sentinel” cells and are generally the first tissue cell population activated by tissue trauma triggering acute inflammatory or allergic reactions and serve a central role in chronic inflammation and wound healing. Recent results from our laboratory indicate that skin mast cells affect glucose sensor induced tissue reactions and CGM function (13).
# HMC-1 human mast cells = test: Mast cell degranulation/activation; assay type: cell-based; conditions: in vitro
# From the text: as §4
# infusion site tissue = test: Tissue toxicity of infusion (open loop CSII mouse model); conditions: open loop delivery system
# From the text: Combined CSII and CGM mouse model (A B, C). Non-obese diabetic (NOD) mouse implanted with Abbott Navigator glucose sensor (GS) and a short polymer infusion set for CSII. The set and sensor were placed sufficiently far apart to avoid interference. Open Loop CGM and CSII insulin infusion system cage and assembly, that allows animal ambulation and mobility during simultaneous continuous glucose sensing and insulin infusion.
# Tissue Toxicity of Insulin in vivo: Infusion: The sectioned polymer catheter wall is visible and marked with a black asterisk (*) in all tissues. […] Infusion was accomplished using the open loop delivery system described in FIG. 5.
# air pouch = test: Leukocyte influx into murine air pouch model (lavage cell count); conditions: injection or infusion into air pouch
# Protocol: For this model, sterile air was injected subcutaneously into mouse skin creating a sustained compartment (pouch) for injection of test agents (FIG. 2). At various times post-air/post-agent injection, the “air pouch” can be lavaged, and the cell and fluid content removed and characterized using standard technology (FIG. 2). After lavage, tissue reactions in the air pouch walls can also be determined using standard histopathology/immunohistochemistry (FIG. 2).
# We adapted this model for the evaluation of tissue responses to infusion of insulin, excipients, factors, drugs and control solutions (e.g. saline). […] Initially, CD-1 mice received air injections (3 mL) into the dorsal site of the low back to induce the air pouch in each animal. On the following day individual mice received infusions of either saline or insulin diluent. […] Exudate was then centrifuged and a TC10 automated cell counter determined the total viable leukocyte cells. The potential inflammatory effect of insulin diluent was evaluated through the analysis on the mouse leukocyte count and exudate concentrations in the inflamed air pouch cavity.
# Air was injected subcutaneously into the mouse skin creating a sustained compartment (pouch) for injection of diluent or saline (control). […] The resulting fluid was characterized for cell number (auto-hemo-cytometer), and cell type using fluorescence activated Cell sorting (FACS).
substance,measurement,setting,value
"AAT: alpha-1-antitrypsin, natural protease inhibitor",reduction of activity of insulin-degrading leukocyte proteases,[1],reduced
same,blocking of insulin degradation by trypsin,Trypsin,blocked
same,inhibition of insulin degradation by PMN extracts,[2],completely inhibits; also recorded: blocked
"FITC-insulin: fluorescent insulin (FITC-insulin; Sigma, St. Louis, MO)",degradation of insulin by elastase,Elastase,degraded
aprotinin,reduction of activity of insulin-degrading leukocyte proteases,[1],reduced
same,blocking of insulin degradation by elastase,Elastase,blocked
same,blocking of insulin degradation by trypsin,Trypsin,blocked
same,inhibition of insulin degradation by PMN extracts,[2],blocked
insulin: commercial insulin formulation: complete insulin (insulin plus preservatives),cell viability (Alamar Blue assay),[3]; 3 days of exposure to increasing concentrations,decreasing cell viability
same,toxicity for human cells in vitro,[3]; physiologic concentrations,toxic
same,PBMC morphology,[4]; high (1.0 mg/mL) concentration,tight contracted morphology indicative of cell death/dying
same,PBMC morphology,[4]; low (0.1 mg/mL) concentration,"spread, expanded morphology indicative of cell injury/activation"
same,pro-inflammatory activation of Hu-PBMC,"human PBMCs; IL-8 72 hr, Interferon gamma 7 days",cause pro-inflammatory activation
same,"expression of pro-inflammatory cytokines including IL-6, IL-8 and TNFa",human PBMCs; PBMC in vitro,induce expression of pro-inflammatory cytokines
same,number of PMN's surviving vs buffer alone,human neutrophils,significantly fewer cells surviving
same,degradation of insulin by elastase,Elastase,cleaves insulin at many sites
same,degradation of insulin by insulin degrading enzyme,[5],cleaves insulin into several smaller peptides
same,toxicity to mouse mast cells,mouse mast cells,toxic
same,mast cell death (alamar Assay),human mast cells; increasing concentration,increasing cell death
same,toxicity to human mast cells,human mast cells; physiologic concentrations,toxic
same,mast cell degranulation / activation,HMC-1 human mast cells,activate MCs
same,mast cell degranulation / activation,HMC-1 human mast cells; listed as insulin formulations,cause mast cell degrandulation
same,tissue reaction at infusion site surrounding catheter,infusion site tissue,"extensive cell damage, inflammation and cellular infiltrate"
same,inflammation / tissue reactions in air pouch vs saline,air pouch,cause tissue reactions
